From article PMC3154423 come the findings set out here.

Common to all, as to test: ITC
Data set [1] deals with Jun bZIP R272A;Fos bZIP R157A (human;human, UniProt P05412;P01100 252-315;137-200, R272A|R157A).
Data set [2] addresses Jun-Jun bZIP R263A (human, UniProt P05412 252-315, R263A).
In data set [3] the target is Jun bZIP K273A;Fos bZIP R155A (human;human, UniProt P05412;P01100 252-315;137-200, K273A|R155A).
In data set [4] the target is Jun bZIP R259A;Fos bZIP R143A (human;human, UniProt P05412;P01100 252-315;137-200, R259A|R143A).
The target in data set [5] is Jun bZIP K268A;Fos bZIP R144A (human;human, UniProt P05412;P01100 252-315;137-200, K268A|R144A).
For data set [6], the target named is Jun bZIP K273A;Fos bZIP R158A (human;human, UniProt P05412;P01100 252-315;137-200, K273A|R158A).
For data set [7], the target named is Jun bZIP R263A;Fos bZIP R144A (human;human, UniProt P05412;P01100 252-315;137-200, R263A|R144A).
In data set [8] the target is Jun bZIP R272A;Fos bZIP R144A (human;human, UniProt P05412;P01100 252-315;137-200, R272A|R144A).
Data set [9] addresses Jun bZIP K258A;Fos bZIP R143A (human;human, UniProt P05412;P01100 252-315;137-200, K258A|R143A).
The target of data set [10] is Jun bZIP R270A;Fos bZIP K148A (human;human, UniProt P05412;P01100 252-315;137-200, R270A|K148A).
Data set [11] has as its target Jun-Jun bZIP R259A (human, UniProt P05412 252-315, R259A).
Data set [12] has as its target Jun bZIP R263A;Fos bZIP R158A (human;human, UniProt P05412;P01100 252-315;137-200, R263A|R158A).
Data set [13] has as its target Jun bZIP K268A;Fos bZIP R157A (human;human, UniProt P05412;P01100 252-315;137-200, K268A|R157A).
Data set [14] deals with Jun bZIP R259A;Fos bZIP R146A (human;human, UniProt P05412;P01100 252-315;137-200, R259A|R146A).
The target of data set [15] is Jun bZIP K268A;Fos bZIP K153A (human;human, UniProt P05412;P01100 252-315;137-200, K268A|K153A).
The target of data set [16] is Jun bZIP R263A;Fos bZIP R146A (human;human, UniProt P05412;P01100 252-315;137-200, R263A|R146A).
Data set [17] addresses Jun bZIP R263A;Fos bZIP R143A (human;human, UniProt P05412;P01100 252-315;137-200, R263A|R143A).

Chain of Jun bZIP R263A;Fos bZIP R144A (P05412 252-315 R263A, chain 1 of 2): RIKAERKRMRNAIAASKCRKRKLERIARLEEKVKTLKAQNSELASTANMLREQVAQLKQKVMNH
Chain of Jun bZIP R263A;Fos bZIP R144A (P01100 137-200 R144A, chain 2 of 2): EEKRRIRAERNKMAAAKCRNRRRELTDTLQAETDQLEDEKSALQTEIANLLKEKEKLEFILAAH
Chain of Jun-Jun bZIP R263A (P05412 252-315 R263A): as the sequence (P05412 252-315 R263A, chain 1 of 2) above
Chain of Jun bZIP R263A;Fos bZIP R146A (P05412 252-315 R263A, chain 1 of 2): as above
Chain of Jun bZIP R263A;Fos bZIP R146A (P01100 137-200 R146A, chain 2 of 2): as the sequence (P01100 137-200 R144A, chain 2 of 2) above, with A8R, R10A counted along it
Chain of Jun bZIP R263A;Fos bZIP R158A (P05412 252-315 R263A, chain 1 of 2): as the sequence (P05412 252-315 R263A, chain 1 of 2) above
Chain of Jun bZIP R263A;Fos bZIP R158A (P01100 137-200 R158A, chain 2 of 2): as the sequence (P01100 137-200 R144A, chain 2 of 2) above, with A8R, R22A counted along it
Chain of Jun bZIP R263A;Fos bZIP R143A (P05412 252-315 R263A, chain 1 of 2): as the sequence (P05412 252-315 R263A, chain 1 of 2) above
Chain of Jun bZIP R263A;Fos bZIP R143A (P01100 137-200 R143A, chain 2 of 2): as the sequence (P01100 137-200 R144A, chain 2 of 2) above, with R7A, A8R counted along it
Chain of Jun bZIP K268A;Fos bZIP R157A (P05412 252-315 K268A, chain 1 of 2): as the sequence (P05412 252-315 R263A, chain 1 of 2) above, with A12R, K17A counted along it
Chain of Jun bZIP K268A;Fos bZIP R157A (P01100 137-200 R157A, chain 2 of 2): as the sequence (P01100 137-200 R144A, chain 2 of 2) above, with A8R, R21A counted along it
Chain of Jun bZIP K268A;Fos bZIP K153A (P05412 252-315 K268A, chain 1 of 2): as the sequence (P05412 252-315 R263A, chain 1 of 2) above, with A12R, K17A counted along it
Chain of Jun bZIP K268A;Fos bZIP K153A (P01100 137-200 K153A, chain 2 of 2): as the sequence (P01100 137-200 R144A, chain 2 of 2) above, with A8R, K17A counted along it
Chain of Jun bZIP K268A;Fos bZIP R144A (P05412 252-315 K268A, chain 1 of 2): as the sequence (P05412 252-315 R263A, chain 1 of 2) above, with A12R, K17A counted along it
Chain of Jun bZIP K268A;Fos bZIP R144A (P01100 137-200 R144A, chain 2 of 2): as the sequence (P01100 137-200 R144A, chain 2 of 2) above
Chain of Jun bZIP K258A;Fos bZIP R143A (P05412 252-315 K258A, chain 1 of 2): as the sequence (P05412 252-315 R263A, chain 1 of 2) above, with K7A, A12R counted along it
Chain of Jun bZIP K258A;Fos bZIP R143A (P01100 137-200 R143A, chain 2 of 2): as the sequence (P01100 137-200 R144A, chain 2 of 2) above, with R7A, A8R counted along it
Chain of Jun bZIP K273A;Fos bZIP R155A (P05412 252-315 K273A, chain 1 of 2): as the sequence (P05412 252-315 R263A, chain 1 of 2) above, with A12R, K22A counted along it
Chain of Jun bZIP K273A;Fos bZIP R155A (P01100 137-200 R155A, chain 2 of 2): as the sequence (P01100 137-200 R144A, chain 2 of 2) above, with A8R, R19A counted along it
Chain of Jun bZIP K273A;Fos bZIP R158A (P05412 252-315 K273A, chain 1 of 2): as the sequence (P05412 252-315 R263A, chain 1 of 2) above, with A12R, K22A counted along it
Chain of Jun bZIP K273A;Fos bZIP R158A (P01100 137-200 R158A, chain 2 of 2): as the sequence (P01100 137-200 R144A, chain 2 of 2) above, with A8R, R22A counted along it
Chain of Jun bZIP R270A;Fos bZIP K148A (P05412 252-315 R270A, chain 1 of 2): as the sequence (P05412 252-315 R263A, chain 1 of 2) above, with A12R, R19A counted along it
Chain of Jun bZIP R270A;Fos bZIP K148A (P01100 137-200 K148A, chain 2 of 2): as the sequence (P01100 137-200 R144A, chain 2 of 2) above, with A8R, K12A counted along it
Chain of Jun bZIP R259A;Fos bZIP R143A (P05412 252-315 R259A, chain 1 of 2): as the sequence (P05412 252-315 R263A, chain 1 of 2) above, with R8A, A12R counted along it
Chain of Jun bZIP R259A;Fos bZIP R143A (P01100 137-200 R143A, chain 2 of 2): as the sequence (P01100 137-200 R144A, chain 2 of 2) above, with R7A, A8R counted along it
Chain of Jun-Jun bZIP R259A (P05412 252-315 R259A): as the sequence (P05412 252-315 R263A, chain 1 of 2) above, with R8A, A12R counted along it
Chain of Jun bZIP R259A;Fos bZIP R146A (P05412 252-315 R259A, chain 1 of 2): as the sequence (P05412 252-315 R263A, chain 1 of 2) above, with R8A, A12R counted along it
Chain of Jun bZIP R259A;Fos bZIP R146A (P01100 137-200 R146A, chain 2 of 2): as the sequence (P01100 137-200 R144A, chain 2 of 2) above, with A8R, R10A counted along it
Chain of Jun bZIP R272A;Fos bZIP R157A (P05412 252-315 R272A, chain 1 of 2): as the sequence (P05412 252-315 R263A, chain 1 of 2) above, with A12R, R21A counted along it
Chain of Jun bZIP R272A;Fos bZIP R157A (P01100 137-200 R157A, chain 2 of 2): as the sequence (P01100 137-200 R144A, chain 2 of 2) above, with A8R, R21A counted along it
Chain of Jun bZIP R272A;Fos bZIP R144A (P05412 252-315 R272A, chain 1 of 2): as the sequence (P05412 252-315 R263A, chain 1 of 2) above, with A12R, R21A counted along it
Chain of Jun bZIP R272A;Fos bZIP R144A (P01100 137-200 R144A, chain 2 of 2): as the sequence (P01100 137-200 R144A, chain 2 of 2) above

B1: TRE duplex 15-mer (dsDNA)
DNA 1: CGCGTGACTCACCCC
DNA 2: GGGGTGAGTCACGCG
In the case of B1, the Kd in data set [1] was 430 ± 20 nM; in data set [2], 2140 ± 100 nM; in [3] it was 6790 ± 420 nM; in [4], 3490 ± 140 nM; in data set [5], 1790 ± 20 nM; in data set [6] it was 680 ± 30 nM. The Kd in data set [7] turned out to be 4210 ± 200 nM; in [8] it was 3720 ± 360 nM; in data set [9], 860 ± 70 nM; in [10], 1900 ± 120 nM; in data set [11], 5250 ± 60 nM; in data set [12], 1120 ± 70 nM. The Kd came out at 600 ± 30 nM in [13]; 2260 ± 140 nM in data set [14]; 470 ± 60 nM in data set [15]; 1040 ± 40 nM in data set [16]; 2250 ± 50 nM in data set [17].
